The values below come from US12371675B2, “Process and microorganism for synthesis of adipic acid from carboxylic acids” (THE GOVERNING COUNCIL OF THE UNIVERSITY OF TORONTO, priority 2015, dated 2025).

A short description of this series: OYE hydrogenation activity screen, NADPH oxidation at 340 nm. Format: biochemical. The conditions noted are these: 1 mM substrate, 0.25 mM NADPH, 2.5 μg protein; cut-off 0.05 U/mg protein; ND = not detected. The procedure:
25 putative OYE genes (Table 1) were cloned based on the Pfam domain of the FMN oxidoreductase family PF00724. Purified OYEs were screened for hydrogenation activity against acrolein, 2-cyclohexn-1-one, cis,cis-muconic acid, trans,trans-muconic acid, and 2-hexendioic acid. Substrate specificity was measured spectrophotometrically in 96-well plates by following incubation for 20 min at room temperature in the anaerobic chamber. Buffers and reagents were also degassed and sparged with Ar. Reaction mixtures contained potassium phosphate (50 mM and pH 7.0), NaCl (10 mM), NADPH (0.25 mM), various substrates (1 mM) and protein (2.5 μg) in a final volume of 200 μL. Enzyme reactions were monitored by following the decrease in absorbance at 340 nm (ε340 nm=6,200/M·cm) as a measure of the conversion of the cofactor NADPH to NADP+.

B1: BH1481: OYE protein from Bacillus halodurans C-125 (protein)
chain: MEHKLFSSYVVKGVTLKNRIVMSPMCMYSSDQKDGKIRPFHISHYESRAAGQVGLIIVEATAVTPQGRISPYDLGIWSDDHISGLTETVERIHAHGAKAAIQLAHAGRKAELDGPIIAPSAISYDKMKTPDAMTEEQISETIEAFKLGALRAKKAGFDIIEIHGAHGYLINEFLSPLTNKRTDAYGGSLENRYRLLREIISEIQTVWDGPLFVRISAAEYAEGGNELSDFITLAKWMKKQGIDLIDCSSGAVVPAPIPVYPGYQVPLAEAIRHEANIATGAVGLITSGIQAEEILQNERADLIFVARELLRNPYWPREAALELGTTISGPSQYDRAWL
With B1, the “Activity [U/mg protein] 2-cyclohexen-1-one” value was 0.13 U/mg protein.

B2: RHA03305: OYE protein from Rhodococcus sp. RHA1 (protein)
chain: MQHTSTTASTLFSPLKLGSTELANRVALAPMTRVSGDEDGSANESIASYYEVFAKGGFGLLITEGIYPDTKYSQGYLNQPGLATAQHADSWKPVVERVHTAGARIFAQLMHAGAQSQGNRYVTETIAPSTTPPLGEQLGFYGGTGPYATPRALSLRDIDDVCAGFAQAAQHAVAAGFDGVEIHGANGYLLDQFLTDYMNQRDDEYGGSLANRLKIYREVIAAVRQVVGSKVTVGVRISQSKVSDYNHRWAGGESDAAEIFQGLAETGVDYIHTTEFDATAPAFADSGTTLAAFATKYSGLPVIANGQLGDPAAADALIENGSAQVISLGKPALANRDWPQRALDAKPIQSDVDPSVFSPMATVKSWELSA
Regarding B2, the “Activity [U/mg protein] acrolein” value is given as 0.08 U/mg protein.

B3: PSPH4058: OYE protein from Pseudomonas syringae phaseolicola 1448A (protein)
chain: MTTIFDPITIGDLQLPNRIIMAPLTRCRADEGRVPNALMSEYYVQRASAGLILTEATSVTPMGVGYPDTPGIWSNDQVRGWSNITKAVHTAGGRIVLQLWHVGRISHPAYLNGETPVAPSAIAAEGHVSLMRPITPLPTPRALELAEIGDIVEAYRVGAENAKAAGFDGVEVHGANGYLLEQFLLTGSNQRTDEYGGSVENRARLLLEVTDAVIEVWGAGRVGVHLSPRFDMHDMSDANRTETFSYVAKELGKRGIAFICARERDAEDSLGPQLKKDFGGVYIANEKFTKDTANTWLAEGKADAIAFGVPYIANPDLPERLASDAPLNEAHPETFYGKGPVGYIDYPRL
Take B3: the “Activity [U/mg protein] 2-cyclohexen-1-one” value worked out at 0.22 U/mg protein.

B4: XCC0307: OYE protein from Xanthomonas campestris pv. campestris str. ATCC 33913 (protein)
chain: MSQLFTPINFGPLALANRIVIAPMCQYSAQDGRATDWHRIHLGTLSQSGAALLILEAAAVQPQGRISYADLGLYDDATEQALGEVLASVRRWSPMPIGIQLAHAGRKASTDLPWKGGEAIAPDHANGWQTVSASALPFRDGQPLPQALDAAGIDAVVEAFVTAAKRAERLELQLIELHAAHGYLMHQFLSPLSNQRSDAYGGSLDNRMRLTLRIFDAVRAAVSDQMAIGVRISATDWVDGGWDLPQSIALSKALDARGAHYIHVSSGGLDPRQQIPVQASYQIPFAEAIRAQVDTPVIGVGLITEPQQAEAILRDGQADAIALARGILYDPRWPWHAAAALGASVTPAPQYQRCEPREARGVFAS
Regarding B4, the “Activity [U/mg protein] 2-cyclohexen-1-one” value is recorded as 0.15 U/mg protein.

B5: SAV1511: OYE protein from Streptomyces avermitilis MA-4680 (protein)
chain: MSALFEPYSLRDLTIPNRVWMAPMCQYSAAPQGPAAGAPHDWHFAHYAARATGGTGLIVVEATAVSPEGRISPYDLGIWNDTQVEAFRRITRFLAAQGTVPAIQLAHGGRKASTDRPWKGGAPLAADEHGWQPLGPSPVAFDERHPVPTELSVAEIRQIVGQFADAARRALAAGFEIAEIHGAHGYLINEFLSPHSNRRTDEYGGSYENRVRFALEVVDAVREVWPAGKPLFFRVSATDWLDEGGWTADDTVRFAAELQAHGVDLLDVSTGGNASGVRIPTGPGYQVPFAARVKAGTSLPVAAVGLITDAEQAEKILANGEADAILLGRELLRNPSFARLAARELGGDVHVPAQYHRSV
For the molecule B5, the “Activity [U/mg protein] 2-cyclohexen-1-one” value came to 0.23 U/mg protein and the “Activity [U/mg protein] acrolein” value is on record as 0.05 U/mg protein.
